The text below walks through data of paper PMC3935945, “Insight into Highly Conserved H1 Subtype-Specific Epitopes in Influenza Virus Hemagglutinin” (PLoS ONE, 2014).

The target in the assay is T1, recombinant hemagglutinin (HA) of 2009 pandemic virus A/Korea/01/2009 (KR01) (Influenza A virus A/Korea/01/2009 (H1N1), strain).
T1 construct: also called KR01 HA; H1N1 HA
The assay is described as follows: crystal structure. Particulars: both partners purified.

B1: Fab fragment from H1-specific monoclonal antibody GC0587 (Fab, V domains shown)
VH: VKLQQSGGGVVQPGGSLRLSCAASGFTFSDYDMSWIRQAPGKGLEWVSGILGGSERSYYRDSVKGRFTISRDNSRKTLYLQMNSLRAEDTAVYYCARHGSPGYTLYAWDYWGQGTMVTVSS
VL: DIQMTQSPASLAVSPGQRATITCRASESVSNYGINFINWFQQKPGQPPKLLIYTASNKGTGVPARFSGSGSGTDFTLTINPVEAEDTANYFCQQTKEVPYTFGGGTKLEIK
notes: also called Fab0587
Turning to B1, the binding result was “binds”.
